These results are taken from patent US12448434B2, “Antibodies specifically recognizing Pseudomonas PcrV and uses thereof” (priority 2019, dated 2025).

For test [1], the system named is P. aeruginosa strains O6-57/66, O11-PA103, O1-52/66 and O16-177/81. The test is described as follows: A549 cell lysis inhibition, various strains (average). Type of test: cell-based, Pseudomonas aeruginosa. The following applies: FIGS. 6A-6D. On the procedure:
To assay for ability to inhibit cytotoxicity and cell lysis caused by P. aeruginosa, the candidate anti-PcrV antibodies were added to human bronchoepithelial cell line A549 or human histiocytic lymphoma cell line U937 seeded in white 96-well plates (Nunc Nunclon Delta) in DMEM plus 10% fetal bovine serum. Log-phase strain PA103(O11) P. aeruginosa was added at a multiplicity of infection (MOI) of 10 and incubated for 2 h at 37° C. and 5% CO2, followed by 20 minutes of equilibration at room temperature. Lactate dehydrogenase (LDH) released from lysed cells was quantified using the CytoTox-ONE kit (Promega), to assay membrane integrity. The relative amount of lysis inhibition was plotted accordingly. IC50 values for the antibodies were also determined.
The optimized anti-PcrV mAb clones 7C1, 8C1, and 7B1 were analyzed for their abilities to inhibit A549 cell lysis by various strains of P. aeruginosa, namely strains O6-57/66, O11-PA103, O1-52/66 and O16-177/81, as compared to the parental 13-42 mAb. A549 cell lysis inhibition assay was performed as described in Example 2.

In a further test the test system is BV particles. The test is described as follows: Cross-reactivity to BV particles by ELISA. The following applies: FIG. 3. It counts as binding. On the procedure: Cross-reactivity to BV particles: Using ELISA, optimized antibodies 7C1, 7B1, 8C1, 6D10, and reference antibodies V2L2-MD and Mab166 were tested for cross-reactivity to BV particles according to the method described previously (See Hötzel I, et al, 2012, mAbs 4:6, 753-760).

Test [2] deals with PcrV mutants (with mutations at position 225). The experiment in a line: Binding to PcrV mutants with mutations at position 225. On the set-up: species or system Pseudomonas aeruginosa. The following applies: data not shown. Here is the method: To further illustrate the optimized antibodies could broadly neutralize P. aeruginosa strains, the abilities of these antibodies to bind various forms of PcrV mutants were tested. Briefly, 100 PcrV sequences were randomly selected from Genebank database. In contrast to the wild type sequence as shown in SEQ ID No: 71, 13% of the selected sequences contained R, G, or K at position 225 (as compared of S in the wild type sequence SEQ No: 71), which was the main mutation around the epitope of 7B1.
These findings further illustrate that the optimized anti-PcrV antibodies could neutralize a broad spectrum of P. aeruginosa strains, which might express various forms of PcrV mutants.

The subject of test [3] is P. aeruginosa (PA103 strain). The experiment in a line: Prophylactic mouse acute pneumonia model, survival. It counts as in vivo, BALB/c mice. The note with it: i.p. 24 h before infection, 1 or 10 mg/kg; 1*LD90 or 2*LD90; 7 days. Here is the method: The candidate anti-PcrV antibodies were assayed for the ability to improve survival in a mouse acute pneumonia model. In a prophylactic model, 7-8 week old BALB/c mice (Vital River Laboratory) were administered the candidate antibodies or PBS intraperitoneally (i.p.) 24 hr before infection, at doses of 1, 5, 10 or 25 mg/kg mouse weight. […] Mouse survival was recorded for up to 7 days post-infection.
In a prophylactic model, 7-8 week old BALB/c mice (Vital River Laboratory) were administered with antibodies intraperitoneally (i.p.) 24 h before infection, at doses of 1 or 10 mg/kg mouse weight. […] Mouse survival was recorded for up to 7 days post-infection. The results were represented as Kaplan-Meier survival curves.

Test [4] concerns P. aeruginosa (O6-57/66 strain). The experiment in a line: Prophylactic mouse intraperitoneal infection model, survival. It counts as in vivo, BALB/c mice. The note with it: 5 mg/kg antibody dose i.p. 24 h before infection; 3*LD90; 5 days. Here is the method: The ability of the optimized anti-PcrV antibodies 7C1, 7B1 and 8C1 to improve survival in a mouse intraperitoneal infection model was evaluated in comparison to parental 13-42 mAb. HIV-10E8 was used as negative control. The mouse intraperitoneal infection model was generated as described previously (See Warrener et al., 2014, Antimicrob. Agents Chemother., 58, 4384-4391).
In a prophylactic model, 7-8 week old BALB/c mice (Vital River Laboratory) were administered antibodies by intraperitoneal (i.p.) injection 24 h before infection, at doses of 5 or 25 mg/kg mouse weight. To induce intraperitoneal infection, the BALB/c mice were intraperitoneally inoculated with P. aeruginosa (O6-57/66 strain) suspended in a 300 μl inoculum at triple the lethal dose (3*LD90=7×10^5 CFU). Mouse survival was recorded for up to 5 days post-infection.

In test [5] the test system is P. aeruginosa (PA103 strain). The experiment in a line: Mouse intraperitoneal infection model, antibody alone or combined with antibiotics, survival. Type of test: in vivo, BALB/c mice. The note with it: antibody 5 mg/kg i.p. 24h before infection; 3*LD90; 5 days; FIG. 12A. Here is the method:
The ability of the optimized anti-PcrV antibody 7B1 or 8C1 to improve survival in mouse intraperitoneal infection model was evaluated in comparison to antibiotics Meropenem, Tobramycin, Ciprofloxacin; and also in comparison to combination treatment of 7B1 or 8C1 with either antibiotic. HIV-10E8 was used as negative control.
In a prophylactic model for anti-PcrV testing, 7-8 week old BALB/c mice (Vital River Laboratory) were intraperitoneally injected with antibody 24h before infection or with antibiotic 1h post infection. Specifically, the mice were administered with either optimized anti-PcrV antibody clone 7B1 or 8C1 (at 5 mg/kg), Meropenem (at 3 mg/kg), Tobramycin (at 10 mg/kg), Ciprofloxacin (at 30 mg/kg), or a combination of 7B1 or 8C1 with one of the antibiotics. To induce intraperitoneal infection, the BALB/c mice were intraperitoneally inoculated with P. aeruginosa (PA103 strain) suspended in a 300 μl inoculum at triple the lethal dose (3*LD90=7×10^5 CFU). Mouse survival was recorded for up to 5 days post-infection.

The subject of another test is mutated PcrV. The experiment in a line: Epitope mapping: ELISA binding to alanine-scanning mutated PcrV. On the set-up: species or system P. aeruginosa. On the procedure: Using the discovery studio software, the predicted binding sites on PcrV for 7B1 and the optimized antibodies were identified, and the amino acid residues within the binding sites and in proximity to the binding sites were selected and subjected to alanine scanning. Subsequently, PcrV proteins carrying these selected mutations were expressed. The binding affinity of 7B1-IgG1 for each mutated PcrV protein was analyzed using ELISA. FIGS. 14A-14D show the ELISA binding curves of the antibodies for mutated PcrV, where mutation positions were according to sequence of SEQ ID NO: 71. As used herein, PcrV represents a His-tagged wild-type P. aeruginosa PcrV (PcrV-6His). Mutations at various positions of the amino acid sequence of the wild type PcrV were generated using alanine scanning as described above.

B1: 7B1: optimized anti-PcrV mAb clone; VH SEQ ID NO: 62, VL SEQ ID NO: 67 (antibody, V domains shown)
VH: EVQLLESGGGLVQPGGSLRLSCTASGFTFSDNYMSWVRQAPGKGLDWVSVISESGGSTNYADSVKGRFSTSRDNSKSTLYLDMNSLRAEDTAIYYCAKGRFSTLSSHFFRAVYGMDVWGQGTAVTVSS
VL: DIQLTQSPSSLSASVGDRVTITCRASQGISSYLAWYQQKPGKAPKLLIYAASTLQSGVPSRFSGSGSGTDFTLTISSLQPEDFATYYCQQLSSYPLTFGGGTKVEIK
Consider B1, for which, in test [1], the “efficacy in inhibiting A549 lysis by four strains relative to parental 13-42 mAb” value is “comparable efficacy in inhibiting A549 lysis”. Also, in the test with BV particles, the “non-specific binding to BV particles” value is recorded as “low levels of non-specific binding”. In addition, the “binding to PcrV mutants with R, G or K at position 225” value (“binding to PcrV mutants with R” for short) in test [2] is on record as “strongly bind these mutants”. The “survival improvement relative to parental 13-42 mAb” value in test [3] is listed as “comparable or better survival improvements”. The “survival improvement relative to parental 13-42 mAb” value in test [4] is reported as “comparable or better survival improvement”. The “survival improvement of antibody alone relative to Meropenem (3 mg/kg)” value in test [5] is “better or comparable survival improvement”. Besides, in the test on mutated PcrV (FIG. 14C), the “effect of PcrV mutation at position D165 on binding” value is “affected binding” and the “effect of PcrV mutation at position Q160 on binding” value is “significantly affected binding”. For the same molecule, in the test on mutated PcrV (FIG. 14D), the “effect of PcrV mutation at position D170 on binding” value is given as “affected binding”, the “effect of PcrV mutation at position D173 on binding” value is given as “affected binding”, the “effect of PcrV mutation at position S202 on binding” value was “affected binding” and the “effect of PcrV mutation at position T175 on binding” value is “affected binding”.

B2: 8C1: optimized anti-PcrV mAb clone; VH SEQ ID NO: 51, VL SEQ ID NO: 67 (antibody, V domains shown)
VH: EVQLLESGGGLVQPGGSLRLSCTASGFTFSDNHMSWVRQAPGKGLDWVSGISESGGSTNYADSVKGRFSTSRDNSKSTLYLDMNSLRAEDTAIYYCAKGRFSTNSAHFFRAVYGMDVWGQGTAVTVSS
VL: DIQLTQSPSSLSASVGDRVTITCRASQGISSYLAWYQQKPGKAPKLLIYAASTLQSGVPSRFSGSGSGTDFTLTISSLQPEDFATYYCQQLSSYPLTFGGGTKVEIK
Regarding B2, the “efficacy in inhibiting A549 lysis by four strains relative to parental 13-42 mAb” value in test [1] is “comparable efficacy in inhibiting A549 lysis”. Moreover, in the test on BV particles, the “non-specific binding to BV particles” value is given as “low levels of non-specific binding”. Moreover, the “binding to PcrV mutants with R” value in test [2] is reported as “strongly bind these mutants”.

B3: 7C1: optimized anti-PcrV mAb clone; VH SEQ ID NO: 52, VL SEQ ID NO: 65 (antibody, V domains shown)
VH: EVQLLESGGGLVQPGGSLRLSCTASGFTFSDNHMSWVRQAPGKGLDWVSGISESGGSTNYADSVKGRFSTSRDNSKSTLYLDMNSLRAEDTAIYYCAKGRFSTSSSHFYRAVYGMDVWGQGTAVTVSS
VL: DIQLTQSPSSLSASVGDRVTITCRASQGISSYLAWYQQKPGKAPKLLIYAASTLQSGVPSRFSGSGSGTDFTLTISSLQPEDFATYYCQQLSSYPLSFGGGTKVEIK
For B3, the “efficacy in inhibiting A549 lysis by four strains relative to parental 13-42 mAb” value in test [1] is “comparable efficacy in inhibiting A549 lysis”. Besides, the “non-specific binding to BV particles” value with BV particles is “low levels of non-specific binding”. Also, the “binding to PcrV mutants with R” value in test [2] is “strongly bind these mutants”. Further, the “survival improvement relative to parental 13-42 mAb” value is “comparable or better survival improvements” in test [3] and “comparable or better survival improvement” in test [4].
